# From patent publication US20230012273A1 (Boehringer Ingelheim, published 2023)
# Changes are numbered by the printed parent chain.
# T1: cynomolgus SIRPα extracellular domain + His-tag (XP_015313155) (cynomolgus monkey)
# T1 construct: also called CySIRPα XP_015313155; cynoSIRPα
# T1 chain: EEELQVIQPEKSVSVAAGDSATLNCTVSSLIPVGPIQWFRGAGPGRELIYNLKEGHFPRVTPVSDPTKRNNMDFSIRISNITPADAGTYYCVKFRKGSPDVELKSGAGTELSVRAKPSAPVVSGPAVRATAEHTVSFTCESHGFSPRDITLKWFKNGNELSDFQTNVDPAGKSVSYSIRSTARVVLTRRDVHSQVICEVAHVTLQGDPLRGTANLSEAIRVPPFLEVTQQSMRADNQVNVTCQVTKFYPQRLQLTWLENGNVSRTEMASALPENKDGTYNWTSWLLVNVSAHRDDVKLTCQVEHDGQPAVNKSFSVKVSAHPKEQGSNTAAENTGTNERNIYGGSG
# T2: cynomolgus SIRPβ1 extracellular domain + His-tag (XP_005568598) (cynomolgus monkey)
# T2 construct: also called Cyno SIRPβ1; cynoSIRPβ1
# T2 chain: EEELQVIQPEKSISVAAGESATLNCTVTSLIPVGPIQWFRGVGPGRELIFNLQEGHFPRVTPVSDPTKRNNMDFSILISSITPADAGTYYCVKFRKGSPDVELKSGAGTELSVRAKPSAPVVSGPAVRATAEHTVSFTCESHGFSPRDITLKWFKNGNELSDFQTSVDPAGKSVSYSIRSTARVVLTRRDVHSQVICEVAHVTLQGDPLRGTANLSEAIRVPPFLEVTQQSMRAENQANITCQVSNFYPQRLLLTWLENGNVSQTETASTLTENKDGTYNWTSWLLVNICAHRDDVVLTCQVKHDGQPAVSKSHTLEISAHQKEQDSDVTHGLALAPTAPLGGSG
# T3: cynomolgus SIRPγ extracellular domain + His-tag (XP_005568591) (cynomolgus monkey, UniProt Q9P1W8 29-359 (human entry))
# T3 construct: also called Cyno SIRPγ; cynoSIRPγ
# T3 chain: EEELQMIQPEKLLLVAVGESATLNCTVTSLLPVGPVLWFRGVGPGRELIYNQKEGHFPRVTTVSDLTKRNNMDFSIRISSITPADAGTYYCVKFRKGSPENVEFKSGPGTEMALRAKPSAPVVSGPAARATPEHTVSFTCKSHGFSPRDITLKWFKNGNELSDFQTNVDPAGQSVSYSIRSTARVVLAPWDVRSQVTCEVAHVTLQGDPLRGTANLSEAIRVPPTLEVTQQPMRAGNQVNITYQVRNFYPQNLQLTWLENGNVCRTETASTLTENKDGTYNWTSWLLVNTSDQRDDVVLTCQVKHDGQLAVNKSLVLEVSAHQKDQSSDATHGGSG
# T4: cynomolgus SIRPβ1v3 extracellular domain + His-tag (XP_005568593) (cynomolgus monkey)
# T4 construct: also called Cyno SIRPβ1v3; cynoSIRPβ1v3
# T4 chain: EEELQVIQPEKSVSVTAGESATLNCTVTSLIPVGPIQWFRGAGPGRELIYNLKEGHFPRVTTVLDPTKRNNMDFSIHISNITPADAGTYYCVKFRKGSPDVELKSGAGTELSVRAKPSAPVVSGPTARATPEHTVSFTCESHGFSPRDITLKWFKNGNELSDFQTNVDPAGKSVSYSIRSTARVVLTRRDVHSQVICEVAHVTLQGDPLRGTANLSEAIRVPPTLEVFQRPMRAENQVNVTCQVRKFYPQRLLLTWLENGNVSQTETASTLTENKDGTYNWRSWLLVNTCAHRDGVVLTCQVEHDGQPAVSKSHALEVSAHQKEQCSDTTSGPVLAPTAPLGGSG
# T5: cynomolgus SIRPα extracellular domain + His-tag (EGM_02252) (cynomolgus monkey)
# T5 construct: also called CySIRPα EGM_02252; cynoSIRPα
# T5 chain: T1 chain with D19E, V27A, S28T, A42V, N51H, L52Q, V227F, T245M
# T6: mouse SIRPα extracellular domain + His-tag (NP_031573) (mouse, UniProt P97797 32-373)
# T6 chain: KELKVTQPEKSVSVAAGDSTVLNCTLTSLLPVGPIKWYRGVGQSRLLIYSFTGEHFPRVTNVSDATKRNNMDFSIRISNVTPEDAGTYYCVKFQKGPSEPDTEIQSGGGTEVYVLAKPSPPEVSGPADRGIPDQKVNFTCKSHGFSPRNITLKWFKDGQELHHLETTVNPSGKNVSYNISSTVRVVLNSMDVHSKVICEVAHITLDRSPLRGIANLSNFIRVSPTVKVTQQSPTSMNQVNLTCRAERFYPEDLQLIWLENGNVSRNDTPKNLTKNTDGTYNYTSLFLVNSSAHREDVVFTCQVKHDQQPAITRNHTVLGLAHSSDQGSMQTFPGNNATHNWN
# T7: cynomolgus SIRPα extracellular domain + His-tag (NP_001271679) (cynomolgus monkey)
# T7 construct: also called CySIRPα NP_001271679; cynoSIRPα
# T7 chain: T1 chain with P62A, F163V, V185L
# B1: Antibody D (antibody, human IgG1, kappa, L234A L235A, V domains shown)
# VH: EVQLVESGGGLVQPGGSLRLSCAASGFTFSSFDMHWVRQPTGKGLEWVSTIGIAGDTYFPGSVKGRFTISRENAKNSLYLQMNSLRAGDTAVYYCARGGNWDDALDIWGQGTMVTVSS
# VL: DIQMTQSPSSLSASVGDRVTITCRASQDINNYLAWFQQKPGKAPKSLIYTASSLQSGVPSKFSGSGSGTDFTLTISSLQPEDFATYYCQQYNTYPYTFGQGTKLEIKR
# B2: Antibody C (antibody, human IgG1, kappa, L234A L235A, V domains shown)
# VH: B1 VH with F32Y, P40A, T50V, F59Y, A87V, N100S, L105F
# VL: B1 VL with V15I, R18K, N92V, T93S
# B3: Antibody A13 (antibody, human IgG1, kappa, L234A L235A, V domains shown)
# VH: EVQLVESGGGLVQPGGSLRLSCAASGFTLSSYDMHWVRQAPGKGLEWVSAIGTAGDTYYTGSVKGRFTISRENAKNSLYLQMNSLRAADTAVYYCVRGGVWDDAFDIWGQGTMVTVSS
# VL: B1 VL with Q55H, N92V, T93S
# B4: Antibody A5 (antibody, human IgG1, kappa, L234A L235A, V domains shown)
# VH: B3 VH with A88S
# VL: B1 VL with D28G, L33A, Q55H, N92V, T93S
# B5: Antibody A16 (antibody, human IgG1, kappa, L234A L235A, V domains shown)
# VH: B3 VH with A88G
# VL: B1 VL with Q55H, N92V, T93S
# B6: Antibody A15 (antibody, human IgG1, kappa, L234A L235A, V domains shown)
# VH: B3 VH with A88E
# VL: B1 VL with Q55H, N92V, T93S
# B7: Antibody A14 (antibody, human IgG1, kappa, L234A L235A, V domains shown)
# VH: B3 VH with A88S
# VL: B1 VL with Q55H, N92V, T93S
# Molecular target: full-length human SIRPβ1 D→H on Expi-CHO cells (human, UniProt O00241 30-398)
# Sequence (O00241 30-398 D130H): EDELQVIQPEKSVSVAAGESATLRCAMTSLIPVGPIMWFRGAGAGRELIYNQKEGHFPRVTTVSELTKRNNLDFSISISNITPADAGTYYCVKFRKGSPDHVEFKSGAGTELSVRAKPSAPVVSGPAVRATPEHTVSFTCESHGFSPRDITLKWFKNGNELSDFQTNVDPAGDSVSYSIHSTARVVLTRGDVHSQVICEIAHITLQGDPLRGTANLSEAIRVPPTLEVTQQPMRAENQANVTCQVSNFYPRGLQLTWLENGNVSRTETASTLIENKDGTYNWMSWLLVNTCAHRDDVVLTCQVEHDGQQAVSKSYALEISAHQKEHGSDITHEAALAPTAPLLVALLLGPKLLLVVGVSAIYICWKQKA
# Assay: flow cytometry, Expi-CHO cells
# Description: These cells are blocked with donkey IgG and incubated on ice with increasing concentrations of antibodies for 60 minutes, washed and stained with AF647-conjugated donkey F(ab′)₂ anti-human IgG antibodies. Stained cells are washed, fixed, and analyzed by flow cytometry. Median fluorescent intensity is determined and used as a measure of antibody binding.
row,binding result,Binder
1,no binding,B1
2,no binding,B2

# Molecular target: T8, human SIRPαV2 extracellular domain + His-tag (CAA71403.1) (human, UniProt P78324 31-373)
# T8 construct: also called hSIRPαV2; HuSIRPαV2
# T8 sequence (P78324 other isoform, or with tags, fused parts or gaps): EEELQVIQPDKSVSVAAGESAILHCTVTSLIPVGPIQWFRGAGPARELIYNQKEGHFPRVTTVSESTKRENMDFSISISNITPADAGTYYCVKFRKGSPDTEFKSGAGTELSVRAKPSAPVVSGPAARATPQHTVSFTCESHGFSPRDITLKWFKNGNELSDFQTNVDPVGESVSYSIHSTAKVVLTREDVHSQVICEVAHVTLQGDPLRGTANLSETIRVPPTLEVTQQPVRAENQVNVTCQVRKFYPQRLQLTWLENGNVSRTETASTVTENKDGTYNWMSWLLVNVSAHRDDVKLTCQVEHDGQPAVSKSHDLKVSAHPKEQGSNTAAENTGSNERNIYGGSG
# Assay: SPR, Ab captured, ECD-His analyte
# Description: (§1) The binding affinity of anti-SIRPα antibodies to the various SIRPα analytes is determined by surface plasmon resonance (SPR) using a ProteOn XPR36 (Bio-Rad). The running buffer for this experiment and all dilutions (except where stated) are done in 1×HBS-EP+. […] The sensorchip is deactivated with 1M ethanolamine HCl for 420 sec at a flowrate of 10 μl/min.
# (§2) The analyte is injected over the captured antibody for 300 sec at a flowrate of 30 μl/min. The dissociation is done for 600 sec. Two-fold serial dilutions of each SIRP protein (Extracellular Domain+His-Tag) are injected as analyte with the highest concentrations indicated in table 36 below.
row,Kd [nM],Binder
1,4.05,B1
2,0.0969,B2

# Molecular target: T1, cynomolgus SIRPα extracellular domain + …
# Assay: SPR, Ab captured, ECD-His analyte
# Description: as §1, §2
row,Kd [nM],Binder
1,160,B3
2,347,B4
3,151,B5
4,154,B6
5,153,B7

# Molecular target: T2, cynomolgus SIRPβ1 extracellular domain …
# Assay: SPR, Ab captured, ECD-His analyte
# Description: as §1, §2
row,binding result,Binder
1,no binding (tested: 1000 nM),B3
2,no binding (tested: 1000 nM),B4
3,no binding (tested: 1000 nM),B5
4,no binding (tested: 1000 nM),B6
5,no binding (tested: 1000 nM),B7

# Molecular target: T9, human SIRPαV1 extracellular domain + His-tag (NP_542970.1) (human, UniProt P78324 31-373)
# T9 construct: also called hSIRPαV1; HuSIRPαV1
# T9 sequence (P78324 other isoform, or with tags, fused parts or gaps): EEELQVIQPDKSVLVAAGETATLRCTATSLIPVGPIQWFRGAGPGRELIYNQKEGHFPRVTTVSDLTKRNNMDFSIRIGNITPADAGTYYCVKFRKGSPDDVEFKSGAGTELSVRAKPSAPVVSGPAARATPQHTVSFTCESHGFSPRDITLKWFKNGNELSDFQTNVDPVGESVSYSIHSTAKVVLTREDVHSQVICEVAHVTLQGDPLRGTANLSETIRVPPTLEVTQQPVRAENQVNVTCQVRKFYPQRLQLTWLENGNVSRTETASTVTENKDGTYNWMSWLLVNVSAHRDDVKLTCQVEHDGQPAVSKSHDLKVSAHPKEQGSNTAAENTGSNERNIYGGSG
# Assay: SPR, Ab captured, ECD-His analyte
# Description: as §1, §2
row,Kd [nM],Binder
1,4.04,B1
2,0.627,B2

# Molecular target: T3, cynomolgus SIRPγ extracellular domain + …
# Assay: SPR, Ab captured, ECD-His analyte
# Description: as §1, §2
row,binding result,Binder
1,no binding (tested: 1000 nM),B3
2,no binding (tested: 1000 nM),B4
3,no binding (tested: 1000 nM),B5
4,no binding (tested: 1000 nM),B6
5,no binding (tested: 1000 nM),B7

# Molecular target: T4, cynomolgus SIRPβ1v3 extracellular …
# Assay: SPR, Ab captured, ECD-His analyte
# Description: as §1, §2
row,Kd [nM],Binder
1,238,B3
2,465,B4
3,225,B5
4,232,B6
5,235,B7

# Molecular target: T5, cynomolgus SIRPα extracellular domain + …
# Assay: SPR, Ab captured, ECD-His analyte
# Description: as §1, §2
row,Kd [nM],Binder
1,226,B3
2,533,B4
3,225,B5
4,223,B6
5,222,B7

# Molecular target: T10, human SIRPβ1 extracellular domain + His-tag (NP_006056.2) (human, UniProt O00241 30-371)
# T10 construct: also called hSIRPβ1; HuSIRPβ1
# T10 sequence (O00241 other isoform, or with tags, fused parts or gaps): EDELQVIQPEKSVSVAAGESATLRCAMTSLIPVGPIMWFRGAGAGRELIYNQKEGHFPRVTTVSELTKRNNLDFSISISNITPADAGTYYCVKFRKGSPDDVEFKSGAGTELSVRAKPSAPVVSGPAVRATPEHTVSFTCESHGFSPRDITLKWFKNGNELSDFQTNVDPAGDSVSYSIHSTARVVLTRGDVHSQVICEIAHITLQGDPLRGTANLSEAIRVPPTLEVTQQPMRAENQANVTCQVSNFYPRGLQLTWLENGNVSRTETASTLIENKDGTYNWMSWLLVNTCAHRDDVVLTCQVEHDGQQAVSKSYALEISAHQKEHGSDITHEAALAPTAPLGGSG
# Assay: SPR, Ab captured, ECD-His analyte
# Description: as §1, §2
row,Kd [nM],Binder
1,16.5,B1
2,2.14,B2

# Molecular target: T11, human SIRPβL/SIRPβ1v3 extracellular domain + His-tag (NP_001129316.1) (human, UniProt Q5TFQ8 30-371)
# T11 construct: also called hSIRPβ1v3; HuSIRPβ1v3
# T11 sequence (Q5TFQ8 other isoform, or with tags, fused parts or gaps): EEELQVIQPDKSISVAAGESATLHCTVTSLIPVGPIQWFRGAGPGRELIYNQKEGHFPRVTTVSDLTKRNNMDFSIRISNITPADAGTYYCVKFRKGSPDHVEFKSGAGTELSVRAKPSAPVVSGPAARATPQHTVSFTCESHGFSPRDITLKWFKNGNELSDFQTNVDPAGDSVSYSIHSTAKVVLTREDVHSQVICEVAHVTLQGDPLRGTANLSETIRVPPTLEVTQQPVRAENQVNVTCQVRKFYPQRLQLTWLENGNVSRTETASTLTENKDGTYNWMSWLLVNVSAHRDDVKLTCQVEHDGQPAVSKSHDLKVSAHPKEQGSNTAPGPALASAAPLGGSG
# Assay: SPR, Ab captured, ECD-His analyte
# Description: as §1, §2
row,binding result,Binder
1,no binding (tested: 100 nM),B3
2,no binding (tested: 100 nM),B4
3,no binding (tested: 100 nM),B5
4,no binding (tested: 100 nM),B6
5,no binding (tested: 100 nM),B7

# Molecular target: T12, human SIRPγ extracellular domain + His-tag (NP_061026.2) (human, UniProt Q9P1W8 29-360)
# T12 construct: also called hSIRPγ; HuSIRPγ
# T12 sequence (Q9P1W8 29-360): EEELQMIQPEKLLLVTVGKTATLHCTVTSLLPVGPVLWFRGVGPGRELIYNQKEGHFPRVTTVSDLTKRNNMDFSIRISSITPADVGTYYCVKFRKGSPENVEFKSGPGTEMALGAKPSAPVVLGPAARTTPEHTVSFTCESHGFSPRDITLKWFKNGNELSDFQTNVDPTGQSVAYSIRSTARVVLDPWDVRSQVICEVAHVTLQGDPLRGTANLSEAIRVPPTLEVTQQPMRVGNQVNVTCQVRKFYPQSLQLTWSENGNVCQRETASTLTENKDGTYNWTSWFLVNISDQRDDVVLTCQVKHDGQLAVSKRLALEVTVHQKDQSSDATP
# Assay: SPR, Ab captured, ECD-His analyte
# Description: as §1, §2
row,binding result,Binder
1,no binding (tested: 1000 nM),B3
2,no binding (tested: 1000 nM),B4
3,no binding (tested: 1000 nM),B5
4,no binding (tested: 1000 nM),B6
5,no binding (tested: 1000 nM),B7

# Molecular target: T10, human SIRPβ1 extracellular domain + …
# Assay: SPR, Ab captured, ECD-His analyte
# Remark: another data set of the same source
# Description: as §1, §2
row,Kd [nM],Binder
1,61,B3
2,64.2,B4
3,62.7,B5
4,58.8,B6
5,58.3,B7

# Molecular target: T6, mouse SIRPα extracellular domain + …
# Assay: SPR, Ab captured, ECD-His analyte
# Description: as §1, §2
row,binding result,Binder
1,no binding,B1
2,no binding,B2

# Molecular target: T7, cynomolgus SIRPα extracellular domain + …
# Assay: SPR, Ab captured, ECD-His analyte
# Description: as §1, §2
binding result,Kd [nM],Binder
no binding (tested: 1000 nM),–,B1
–,14.3,B2
